Source: paper PMC6222646, “HIV-1 Integrase-Targeted Short Peptides Derived from a Viral Protein R Sequence” (Molecules : A Journal of Synthetic Chemistry and Natural …, 2018)
Where no end group is shown, it is not given here.

B1: peptide 1b (FIHFRIG-amide) (peptide)
peptide: FIHFRIG-NH2
B2: peptide 1c (Ac-FIHFRIG-amide) (peptide)
peptide: Ac-FIHFRIG-NH2

Biological target: HIV-1 integrase (IN) (HIV-1)

Row | Binder | 3'-P IC50 (in vitro IN 3'-processing assay) [µM] | ST IC50 (in vitro IN strand transfer assay) [µM]
1 | B1 | 31.5 | 7.3
2 | B2 | 23.5 | 4.7
